Patent US20200231654A1 (published 2020)
Residue numbers refer to the chain shown, from its start.

T1: Chymase human recombinant expressed in Pichia pastoris (human, UniProt P23946 22-247)
T1 chain: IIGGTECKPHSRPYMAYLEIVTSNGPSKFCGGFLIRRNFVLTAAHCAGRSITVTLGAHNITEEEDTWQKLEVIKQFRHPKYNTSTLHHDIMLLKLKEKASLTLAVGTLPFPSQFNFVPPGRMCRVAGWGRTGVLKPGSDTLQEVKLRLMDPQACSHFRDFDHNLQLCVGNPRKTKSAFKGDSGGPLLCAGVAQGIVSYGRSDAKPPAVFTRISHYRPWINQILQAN

T2: Recombinant Human Matriptase/ST14 Catalytic Domain (human, UniProt Q9Y5Y6 596-855)
T2 chain: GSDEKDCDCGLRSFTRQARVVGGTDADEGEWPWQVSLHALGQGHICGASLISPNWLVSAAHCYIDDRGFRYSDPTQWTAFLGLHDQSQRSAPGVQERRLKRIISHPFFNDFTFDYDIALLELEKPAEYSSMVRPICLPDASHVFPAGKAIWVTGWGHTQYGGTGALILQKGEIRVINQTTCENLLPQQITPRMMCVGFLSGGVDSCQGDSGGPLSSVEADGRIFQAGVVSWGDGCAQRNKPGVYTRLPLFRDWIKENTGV

T3: Neutrophil elastase (human) (human, UniProt P08246 30-247)
T3 chain: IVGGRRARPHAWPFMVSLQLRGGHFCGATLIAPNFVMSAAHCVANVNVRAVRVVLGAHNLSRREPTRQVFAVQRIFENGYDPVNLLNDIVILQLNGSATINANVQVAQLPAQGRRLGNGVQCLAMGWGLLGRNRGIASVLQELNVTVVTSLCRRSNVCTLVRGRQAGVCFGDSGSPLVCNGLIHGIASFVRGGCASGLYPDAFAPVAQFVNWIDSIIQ

T4: Plasmin from human plasma (human, UniProt P00747 97-810)
T4 chain: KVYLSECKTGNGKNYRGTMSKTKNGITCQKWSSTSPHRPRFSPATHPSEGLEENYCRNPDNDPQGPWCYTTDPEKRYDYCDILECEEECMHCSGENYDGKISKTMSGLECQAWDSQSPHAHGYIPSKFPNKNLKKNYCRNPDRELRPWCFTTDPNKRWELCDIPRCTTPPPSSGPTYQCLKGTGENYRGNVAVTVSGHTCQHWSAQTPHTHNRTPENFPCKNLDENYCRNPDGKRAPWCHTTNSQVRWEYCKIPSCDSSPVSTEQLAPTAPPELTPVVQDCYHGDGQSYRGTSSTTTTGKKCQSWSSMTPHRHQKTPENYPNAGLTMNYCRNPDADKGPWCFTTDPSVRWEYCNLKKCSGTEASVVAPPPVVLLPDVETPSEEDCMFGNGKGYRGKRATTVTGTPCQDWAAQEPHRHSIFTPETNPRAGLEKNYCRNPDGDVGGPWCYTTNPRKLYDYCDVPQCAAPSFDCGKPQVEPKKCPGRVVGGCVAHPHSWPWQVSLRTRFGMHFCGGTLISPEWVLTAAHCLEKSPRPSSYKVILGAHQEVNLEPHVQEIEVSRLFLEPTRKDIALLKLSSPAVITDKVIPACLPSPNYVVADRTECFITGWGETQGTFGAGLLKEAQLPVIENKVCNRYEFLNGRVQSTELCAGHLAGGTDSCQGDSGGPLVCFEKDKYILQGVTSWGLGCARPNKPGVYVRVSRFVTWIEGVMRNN

B1: active MMP-9-binding peptide M91014 (designed binder)
chain: GSGMKETAAAKFERQHMDSPDLGTDDDDKAMADIGSANSDPQFGLFSKYRTPNCVMYKYAQCSHKYKPVCGSDMSTYANECTLCMKIREGGHNIKIIRNGPCGASAAA
B2: active MMP-9-binding peptide M91004 (designed binder)
chain: GSGMKETAAAKFERQHMDSPDLGTDDDDKAMADIGSANSDPQFGLFSKYRTPNCRQRKGPSCQMAFQPVCGSDMSTYANECTLCMKIREGGHNIKIIRNGPCGASAAA
B3: active MMP-9-binding peptide M91011 (designed binder)
chain: B1 chain with V55M, Y66S, K67Q
B4: active MMP-9-binding peptide M91005 (designed binder)
chain: B2 chain with Q56K, K58G, A65S, F66Y, Q67N
B5: active MMP-9-binding peptide M91012 (designed binder)
chain: B2 chain with Q56V, K58G, A65S, Q67N
B6: active MMP-9-binding peptide M91002 (designed binder)
chain: B2 chain with Q56T, R57G, K58R, S61A, A65G
B7: active MMP-9-binding peptide M91001 (designed binder)
chain: B2 chain with R55Q, Q56R, R57G, K58I, A65S, F66Y, Q67K
B8: active MMP-9-binding peptide M91010 (designed binder)
chain: B2 chain with Q56K, R57V, K58G, G59E, S61A, A65S, Q67N

Tests used:
[1] = target: biotin-labeled active hMMP-9(cat)_FLAG_Avi (UniProt P14780 107-449, biotin on the Avi tag (biotin ligase BirA)); assay: ELISA
active hMMP-9(cat)_His6 = active hMMP-9(cat)_His6 (UniProt P14780 107-449); assay: enzyme inhibition; substrate peptide
[2] = target: T1, Chymase human recombinant expressed in …; assay: substrate peptide degradation inhibition
[3] = target: recombinant human plasma kallikrein/KLKB1 Protein (human, UniProt P03952 20-638); assay: substrate peptide degradation inhibition
[4] = target: Trypsin from Human Pancreas (human, UniProt P07477 24-247); assay: substrate peptide degradation inhibition
[5] = target: Protein C from human plasma (human, UniProt P04070 43-461); assay: substrate peptide degradation inhibition
[6] = target: urokinase from human urine (human, UniProt P00749 21-431); assay: substrate peptide degradation inhibition
[7] = target: T2, Recombinant Human Matriptase/ST14 …; assay: substrate peptide degradation inhibition
[8] = target: tissue plasminogen activator human (human, UniProt P00750 36-562); assay: substrate peptide degradation inhibition
[9] = target: T3, Neutrophil elastase (human); assay: substrate peptide degradation inhibition
[10] = target: Thrombin from human plasma (human, UniProt P00734 328-622); assay: substrate peptide degradation inhibition
Tryptase from human lung = Tryptase from human lung (human, UniProt Q15661 31-275); assay: substrate peptide degradation inhibition
[11] = target: T4, Plasmin from human plasma; assay: substrate peptide degradation inhibition
[12] = target: α-Chymotrypsin from human pancreas (human, UniProt P17538 19-263); assay: substrate peptide degradation inhibition
active hMMP-9(cat)_D185A = active hMMP-9(cat)_D185A (UniProt P14780 107-449); assay: substrate peptide degradation inhibition
active hMMP-9(cat)_P193A = active hMMP-9(cat)_P193A (UniProt P14780 107-449); assay: substrate peptide degradation inhibition
active hMMP-9(cat)_Q199G = active hMMP-9(cat)_Q199G (UniProt P14780 107-449); assay: substrate peptide degradation inhibition
active hMMP-9(cat)_F192A = active hMMP-9(cat)_F192A (UniProt P14780 107-449); assay: substrate peptide degradation inhibition
active hMMP-9(cat)_F192A, sequence (P14780 107-449 F192A): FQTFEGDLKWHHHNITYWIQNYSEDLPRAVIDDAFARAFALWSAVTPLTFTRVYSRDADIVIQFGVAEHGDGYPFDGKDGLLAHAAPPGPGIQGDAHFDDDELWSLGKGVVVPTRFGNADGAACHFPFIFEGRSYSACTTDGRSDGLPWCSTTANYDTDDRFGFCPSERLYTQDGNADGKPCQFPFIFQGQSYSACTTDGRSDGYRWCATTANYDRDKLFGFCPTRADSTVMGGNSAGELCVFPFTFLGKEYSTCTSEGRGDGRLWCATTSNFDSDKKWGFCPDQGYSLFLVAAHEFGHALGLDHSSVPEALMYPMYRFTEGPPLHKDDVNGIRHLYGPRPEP

Tryptase from human lung, sequence (Q15661 31-275): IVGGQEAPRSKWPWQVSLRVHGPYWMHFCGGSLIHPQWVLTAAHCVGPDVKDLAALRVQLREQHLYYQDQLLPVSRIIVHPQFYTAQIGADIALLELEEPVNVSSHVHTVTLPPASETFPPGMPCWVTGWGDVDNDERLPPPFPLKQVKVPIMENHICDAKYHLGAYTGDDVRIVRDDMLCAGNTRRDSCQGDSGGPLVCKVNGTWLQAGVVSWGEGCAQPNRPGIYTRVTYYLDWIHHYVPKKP
active hMMP-9(cat)_His6, sequence (P14780 107-449): as the sequence (P14780 107-449 F192A) above, with A86F counted along it
tissue plasminogen activator human, sequence (P00750 36-562): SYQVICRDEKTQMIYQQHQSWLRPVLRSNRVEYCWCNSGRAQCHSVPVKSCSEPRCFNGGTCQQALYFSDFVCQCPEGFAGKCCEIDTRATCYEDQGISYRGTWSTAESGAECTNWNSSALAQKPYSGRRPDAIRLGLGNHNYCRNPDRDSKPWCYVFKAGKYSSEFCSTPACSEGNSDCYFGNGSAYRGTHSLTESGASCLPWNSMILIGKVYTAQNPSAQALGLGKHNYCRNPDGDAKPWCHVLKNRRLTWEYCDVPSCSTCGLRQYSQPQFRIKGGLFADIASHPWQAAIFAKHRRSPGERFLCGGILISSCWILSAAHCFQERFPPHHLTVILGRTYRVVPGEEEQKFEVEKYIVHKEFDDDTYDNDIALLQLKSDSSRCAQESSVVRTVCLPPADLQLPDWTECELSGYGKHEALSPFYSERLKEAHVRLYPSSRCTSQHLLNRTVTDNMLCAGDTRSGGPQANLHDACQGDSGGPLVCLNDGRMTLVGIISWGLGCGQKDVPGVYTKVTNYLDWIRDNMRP
Protein C from human plasma, sequence (P04070 43-461): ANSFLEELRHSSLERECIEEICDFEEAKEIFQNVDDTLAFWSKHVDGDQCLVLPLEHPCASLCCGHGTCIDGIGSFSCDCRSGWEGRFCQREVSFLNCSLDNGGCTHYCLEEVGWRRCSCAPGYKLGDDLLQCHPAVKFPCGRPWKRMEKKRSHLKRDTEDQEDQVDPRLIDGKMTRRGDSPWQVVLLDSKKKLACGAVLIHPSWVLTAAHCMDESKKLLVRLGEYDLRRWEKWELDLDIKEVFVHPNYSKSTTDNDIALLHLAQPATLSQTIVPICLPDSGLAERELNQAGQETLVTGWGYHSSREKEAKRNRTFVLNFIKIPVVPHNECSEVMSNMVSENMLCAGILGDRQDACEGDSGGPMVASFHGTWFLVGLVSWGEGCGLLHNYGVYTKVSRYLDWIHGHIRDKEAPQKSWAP
α-Chymotrypsin from human pancreas, sequence (P17538 19-263): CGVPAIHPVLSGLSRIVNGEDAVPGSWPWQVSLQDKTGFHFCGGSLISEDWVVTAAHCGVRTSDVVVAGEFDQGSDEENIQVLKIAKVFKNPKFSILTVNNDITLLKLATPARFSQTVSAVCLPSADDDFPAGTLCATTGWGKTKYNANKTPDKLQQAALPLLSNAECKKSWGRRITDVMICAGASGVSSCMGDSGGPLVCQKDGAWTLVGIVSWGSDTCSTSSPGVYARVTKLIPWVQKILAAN
biotin-labeled active hMMP-9(cat)_FLAG_Avi, sequence (P14780 other isoform, or with tags, fused parts or gaps): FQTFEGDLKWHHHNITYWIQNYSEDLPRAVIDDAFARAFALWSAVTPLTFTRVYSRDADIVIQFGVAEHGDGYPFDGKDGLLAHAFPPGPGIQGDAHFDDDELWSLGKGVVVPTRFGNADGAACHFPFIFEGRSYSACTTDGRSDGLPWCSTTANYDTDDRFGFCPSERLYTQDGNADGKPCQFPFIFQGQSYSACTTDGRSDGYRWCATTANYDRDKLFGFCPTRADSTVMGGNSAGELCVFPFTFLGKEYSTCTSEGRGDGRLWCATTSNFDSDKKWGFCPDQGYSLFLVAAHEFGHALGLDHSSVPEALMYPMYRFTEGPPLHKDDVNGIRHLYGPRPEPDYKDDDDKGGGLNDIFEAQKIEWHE
recombinant human plasma kallikrein/KLKB1 Protein, sequence (P03952 20-638): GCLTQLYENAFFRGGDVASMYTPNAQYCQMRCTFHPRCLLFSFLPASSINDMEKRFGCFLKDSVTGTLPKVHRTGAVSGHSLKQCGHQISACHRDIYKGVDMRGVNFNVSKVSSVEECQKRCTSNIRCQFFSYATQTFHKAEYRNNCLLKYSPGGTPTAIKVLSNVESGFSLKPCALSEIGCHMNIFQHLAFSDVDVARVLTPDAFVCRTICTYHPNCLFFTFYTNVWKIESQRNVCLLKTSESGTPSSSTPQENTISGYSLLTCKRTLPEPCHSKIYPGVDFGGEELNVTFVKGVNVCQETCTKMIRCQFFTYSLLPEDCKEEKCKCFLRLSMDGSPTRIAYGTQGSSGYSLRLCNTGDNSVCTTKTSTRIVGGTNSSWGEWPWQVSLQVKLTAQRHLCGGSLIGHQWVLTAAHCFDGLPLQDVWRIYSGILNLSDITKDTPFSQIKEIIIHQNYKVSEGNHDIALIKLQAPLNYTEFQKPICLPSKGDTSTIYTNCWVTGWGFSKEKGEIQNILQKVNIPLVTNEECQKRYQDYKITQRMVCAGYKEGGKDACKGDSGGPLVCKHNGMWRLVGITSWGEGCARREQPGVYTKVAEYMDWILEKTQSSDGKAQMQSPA
active hMMP-9(cat)_D185A, sequence (P14780 107-449 D185A): as the sequence (P14780 107-449 F192A) above, with D79A, A86F counted along it
active hMMP-9(cat)_P193A, sequence (P14780 107-449 P193A): as the sequence (P14780 107-449 F192A) above, with A86F, P87A counted along it
active hMMP-9(cat)_Q199G, sequence (P14780 107-449 Q199G): as the sequence (P14780 107-449 F192A) above, with A86F, Q93G counted along it

Binder	EC50 [1]	Ki (active hMMP-9(cat)_His6)	IC50 [2]	IC50 [3]	IC50 [4]	IC50 [5]	IC50 [6]	IC50 [7]	IC50 [8]	IC50 [9]	IC50 [10]	IC50 (Tryptase from human lung)	IC50 [11]	IC50 [12]	IC50 (active hMMP-9(cat)_D185A)	IC50 (active hMMP-9(cat)_P193A)	IC50 (active hMMP-9(cat)_Q199G)	IC50 (active hMMP-9(cat)_F192A)
B1	0.008 µM	0.00045 µM	> 1 µM	> 1 µM	> 1 µM	> 1 µM	> 1 µM	> 1 µM	> 1 µM	> 1 µM	> 1 µM	> 1 µM	> 1 µM	> 1 µM				
B2	0.042 µM	0.0012 µM	> 1 µM	> 1 µM	> 1 µM	> 1 µM	> 1 µM	> 1 µM	> 1 µM	> 1 µM	> 1 µM	> 1 µM	> 1 µM	> 1 µM				
B3	0.016 µM	0.0016 µM	> 1 µM	> 1 µM	> 1 µM	> 1 µM	> 1 µM	> 1 µM	> 1 µM	> 1 µM	> 1 µM	> 1 µM	> 1 µM	> 1 µM	0.31 µM	0.11 µM	0.022 µM	0.083 µM
B4	0.046 µM	0.0014 µM	> 1 µM	> 1 µM	> 1 µM	> 1 µM	> 1 µM	> 1 µM	> 1 µM	> 1 µM	> 1 µM	> 1 µM	> 1 µM	> 1 µM	0.029 µM	0.013 µM	0.04 µM	> 1 µM
B5	0.046 µM	0.0021 µM	> 1 µM	> 1 µM	> 1 µM	> 1 µM	> 1 µM	> 1 µM	> 1 µM	> 1 µM	> 1 µM	> 1 µM	> 1 µM	> 1 µM				
B6	0.047 µM	0.0023 µM	> 1 µM	> 1 µM	> 1 µM	> 1 µM	> 1 µM	> 1 µM	> 1 µM	> 1 µM	> 1 µM	> 1 µM	> 1 µM	> 1 µM				
B7	0.022 µM	0.0026 µM	> 1 µM	> 1 µM	> 1 µM	> 1 µM	> 1 µM	> 1 µM	> 1 µM	> 1 µM	> 1 µM	> 1 µM	> 1 µM	> 1 µM				
B8	0.048 µM	0.0012 µM	> 1 µM	> 1 µM	> 1 µM	> 1 µM	> 1 µM	> 1 µM	> 1 µM	> 1 µM	> 1 µM	> 1 µM	> 1 µM	> 1 µM				
